Measured values taken from paper PMC11288887 (2024).
No end group written: not given here.

What was measured:
Assay in all cases: FP
(DLP)6 binder = target: (DLP)6 binder
(DLS)6 binder = target: (DLS)6 binder
(KLP)6 binder = target: (KLP)6 binder

Row | Kd ((DLP)6 binder) [nM] | Kd ((DLS)6 binder) [nM] | Kd ((KLP)6 binder) [nM] | Binder
1 | ~1000 | ~1800 |  | tetramethylrhodamine-KLPKLPKLPKLPKLPKLP [(KLP)6]
2 |  | 0.7 | 4.6 | tetramethylrhodamine-DLPDLPDLPDLPDLPDLP [(DLP)6]
